Source: publication PMC9165289, “Theranostic PSMA ligands with optimized backbones for intraoperative multimodal imaging and photodynamic therapy of prostate cancer” (European Journal of Nuclear Medicine and Molecular Imaging, 2022)
Where two headings read alike, the source gives them in different places.

Experiments:
[1] = system: PSMA; design: method as in PMID 27789722, PMID 29651565; conditions: reported in the literature; cited from earlier work
[2] = system: PSMA; design: method as in PMID 27789722, PMID 29651565; conditions: reported in the literature; cited from earlier work; remark: listed apart in the source
[3] = system: LS174T-PSMA cells; design: method as in PMID 33408764; conditions: head-to-head comparison; cited from earlier work
[4] = system: LS174T-PSMA and LS174T wildtype xenografts; test: PSMA-N064 blocking experiment, ex vivo biodistribution; format: in vivo, BALB/c nude mice; conditions: 0.3 nmol, 10 MBq, i.v., 2 h p.i., n=5
Method: (§1) All animal experiments were approved by the institutional Animal Welfare Committee of the Radboud University Medical Center and were conducted in accordance to the guidelines of the Revised Dutch Act on Animal Experimentation. Animal experiments were performed in 8–10 weeks old male BALB/c nude mice (Janvier). The mice were housed in individually ventilated cages (Blue line IVC, 3–5 mice per cage), under standard non-sterile conditions with cage enrichment present. There was free access to chlorophyll-free animal chow (Sniff Voer) and water. Mice were subcutaneously inoculated with 3.0 × 10^6 LS174T-PSMA cells in the right flank and 1.5 × 10^6 LS174T WT cells in the left flank (diluted in 200-µl RPMI 1640 medium). When xenografts were approximately 0.5 cm^3 (10–14 days after injection), mice were block-randomized into groups based on tumor size. The researchers were not blinded for the experimental groups.
Five mice per group were intravenously injected with either 0.1 nmol PSMA-N064, 0.3 nmol PSMA-N064, 0.1 nmol PSMA-N064 + 10 nmol unlabeled PSMA-617 (100x excess) or PSMA-617. Ligands were labeled with 10 MBq ^111In in PBS+0.5% (w/v) BSA. For the ex vivo biodistribution four groups (one for each experimental condition) of five mice were included. Two hours p.i., all mice from all groups were euthanized by CO2/O2-asphyxiation and relevant tissues were dissected, weighed and measured for radioactivity in a gamma-counter (2480 WIZARD^2 Automatic Gamma Counter, PerkinElmer).

[5] = system: LS174T-PSMA and LS174T wildtype xenografts; test: ex vivo biodistribution of 111In-labeled ligands; design: species or system BALB/c nude mice; conditions: 0.3 nmol, 2 h p.i.
Method: as §1
(§2) Mice were intravenously injected with 0.3 nmol PSMA ligand, labeled with 10 MBq ^111In (molar activity 33.3 MBq/nmol) in PBS + 0.5% (w/v) BSA. For the ex vivo biodistribution, five groups (one group for each ligand) of four mice were included. Two hours p.i., all mice were euthanized by CO2/O2-asphyxiation. For two mice of each group (2 mice/ligand), background-subtracted fluorescence images were acquired with the IVIS imaging system (Xenogen VivoVision IVIS Lumina II, PerkinElmer), with a 640-nm excitation filter and a Cy5.5 emission filter and an acquisition time of 10 s. Next, µSPECT/CT imaging was performed in the same two mice per group, with a 1.0-mm diameter pinhole mouse collimator tube (U-SPECT II, MILabs). Mice were scanned for 30 min followed by a CT scan for anatomical reference (spatial resolution 160 μm, 615 μA, 65 kV). MILabs reconstruction software was used to reconstruct the µSPECT/CT scans, via an ordered-subset expectation maximization algorithm, energy windows 154–188 keV and 220–270 keV, 3 iterations, 16 subsets, and voxel size of 0.75 mm. SPECT/CT maximum intensity projections (MIPs) were created using the Inveon Research Workplace software (Siemens Preclinical Solutions, version 4.1). NIR fluorescence images were analyzed using Living Image software (PerkinElmer, version 4.2). After imaging, relevant tissues were dissected, weighed, and measured for radioactivity in a gamma-counter (2480 WIZARD^2 Automatic Gamma Counter, PerkinElmer). In addition, a blocking experiment with PSMA-N064 and PSMA-617 was performed. Full experimental procedures and results can be found in the supplementary data (Page 5, Supplementary Fig. 3).

[6] = ex vivo biodistribution of 111In-labeled ligands; design: species or system BALB/c nude mice; conditions: male, BALB/c nude, mouse, iv, 0.3 nmol, total radioactivity, 2 h p.i.; for tissue uptake at 2 h: 10 MBq/mouse, i.v.
Method: as §1, §2

[7] = system: LS174T-PSMA cells; test: in vitro binding and internalization assay; format: cell-based, human; conditions: for PSMA-specific membrane binding and internalization: corrected for non-specific binding (2-PMPA)
Method: The binding and internalization characteristics of the ligands were determined using LS174T-PSMA cells. Cells were cultured to confluency in 6-well plates followed by incubation with 50,000 counts per minute of ^111In-labeled ligand (0.1–0.25 pmol/well) in 1-ml RPMI + 0.5% BSA (37 °C, 2 h). Non-specific binding was determined by coincubation with 2(phosphonomethyl)-pentane-1,5-dioic acid (2-PMPA, 21.57 µM). PSMA-specific binding was defined as total binding minus the non-specific binding. To retrieve the membrane-bound fraction, cells were washed twice with PBS and incubated for 10 min at 0 °C with acid buffer (154-mM NaCl, 0.1 M acetic acid, pH 2.6). After incubation, the membrane-bound fraction was collected. Then, cells were washed and lysed with 0.1 M NaOH, and the cell lysate (intracellular activity) was collected. Intracellular and membrane-bound activity fractions were measured in a gamma-counter (2480 WIZARD^2 Automatic Gamma Counter, PerkinElmer).

[8] = system: LS174T-PSMA and LS174T wildtype xenografts; test: µSPECT/CT and NIR fluorescence imaging; format: in vivo, BALB/c nude mice; conditions: 0.3 nmol, 10 MBq/mouse, 2 h p.i.
Text: as §2, with “SPECT/CT maximum intensity projections (MIPs) were created using the Inveon Research Workplace software (Siemens Preclinical Solutions, version 4.1).” left out, “In addition, a blocking experiment with PSMA-N064 and PSMA-617 was performed. Full experimental procedures and results can be found in the supplementary data (Page 5, Supplementary Fig. 3).” left out

[9] = LS174T wildtype tumor, n=4, read-out: Biodistribution Tumor- LS174T
[10] = LS174T-PSMA tumor, n=4, read-out: Biodistribution Tumor+ LS174T-PSMA
[11] = adrenals, n=4, read-out: Biodistribution Adrenals
[12] = blood, n=4, read-out: Biodistribution Blood
[13] = bone marrow, n=4, read-out: Biodistribution Bone marrow
[14] = bone, n=4, read-out: Biodistribution Bone
[15] = duodenum, n=4, read-out: Biodistribution Duodenum
[16] = heart, n=4, read-out: Biodistribution Heart
[17] = kidney, n=4, read-out: Biodistribution Kidney
[18] = liver, n=4, read-out: Biodistribution Liver
[19] = lung, n=4, read-out: Biodistribution Lung
[20] = muscle, n=4, read-out: Biodistribution Muscle
[21] = pancreas, n=4, read-out: Biodistribution Pancreas
[22] = prostate, n=4, read-out: Biodistribution Prostate
[23] = salivary glands, n=4, read-out: Biodistribution Salivary glands
[24] = spleen, n=4, read-out: Biodistribution Spleen
[25] = stomach, n=4, read-out: Biodistribution Stomach
[26] = tumor (LS174T-PSMA xenograft) / blood, read-out: Tumor/Blood ratio
[27] = tumor (LS174T-PSMA xenograft) / kidney, read-out: Tumor/Kidney ratio
[28] = tumor (LS174T-PSMA xenograft) / liver, read-out: Tumor/Liver ratio
[29] = tumor (LS174T-PSMA xenograft) / spleen, read-out: Tumor/Spleen ratio

For PSMA-1007, the internalization ratio [1] is given as 67% and the IC50 [2] is given as 4.2 ± 0.5 nM.

For `O=C(O)CC[C@H](NC(=O)N[C@@H](CCCCNC(=O)[C@H](Cc1ccc2ccccc2c1)NC(=O)[C@H]1CC[C@H](CNC(=O)CN2CCN(CC(=O)O)CCN(CC(=O)O)CCN(CC(=O)O)CC2)CC1)C(=O)O)C(=O)O` [PSMA-617], the internalization ratio [3] is given as 46% and the “Biodistribution Tumor+ LS174T-PSMA” value [4] is given as 19 ± 2 %ID/g.

Work on `C[Si](C)(CCC[N+](CCCS(=O)(=O)[O-])(CCCS(=O)(=O)O)CCCS(=O)(=O)O)O[Si]1(O[Si](C)(C)CCC[N+](CCCS(=O)(=O)[O-])(CCCS(=O)(=O)O)CCCS(=O)(=O)O)n2c3c4ccccc4c2N=C2N=C(N=c4c5c(OCCCOC(=O)NCCCCCC(=O)NCCCC[C@H](NC(=O)CN6CCN(CC(=O)O)CCN(CC(=O)O)CCN(CC(=O)O)CC6)C(=O)NCCCC[C@H](NC(=O)[C@H](CCC(=O)O)NC(=O)c6cccnc6)C(=O)NCc6ccc(C(=O)N[C@@H](Cc7ccc8ccccc8c7)C(=O)NCCCC[C@H](NC(=O)N[C@@H](CCC(=O)O)C(=O)O)C(=O)O)cc6)cccc5c(n41)=NC1=NC(=N3)c3ccccc31)c1ccccc12` [PSMA-N02] yielded a Tumor/Negative tumor ratio [5] of 42.2 ± 16.4, a Tumor/Prostate ratio [5] of 46.9 ± 13.8 and a Tumor/Salivary gland ratio [5] of 39.2 ± 3.7. The tissue uptake at 2 h [6, 9] was 0.6 ± 0.2 %ID/g, the tissue uptake at 2 h [6, 10] was 23 ± 2 %ID/g and the tissue uptake at 2 h [6, 11] was 1.2 ± 0.2 %ID/g. For the same compound, the tissue uptake at 2 h [6, 12] was 0.5 ± 0.01 %ID/g, the tissue uptake at 2 h [6, 13] was 0.1 ± 0.1 %ID/g and the tissue uptake at 2 h [6, 14] was 0.5 ± 0.04 %ID/g. It also gave a tissue uptake at 2 h [6, 15] of 0.4 ± 0.05 %ID/g, a tissue uptake at 2 h [6, 16] of 0.4 ± 0.05 %ID/g and a tissue uptake at 2 h [6, 17] of 99 ± 12 %ID/g. It also gave a tissue uptake at 2 h [6, 18] of 1.1 ± 0.1 %ID/g, a tissue uptake at 2 h [6, 19] of 1 ± 0.3 %ID/g and a tissue uptake at 2 h [6, 20] of 0.2 ± 0.04 %ID/g. It also gave a tissue uptake at 2 h [6, 21] of 0.3 ± 0.05 %ID/g, a tissue uptake at 2 h [6, 22] of 0.5 ± 0.1 %ID/g and a tissue uptake at 2 h [6, 23] of 0.6 ± 0.1 %ID/g. The tissue uptake at 2 h [6, 24] was 1.6 ± 0.2 %ID/g, the tissue uptake at 2 h [6, 25] was 0.5 ± 0.1 %ID/g and the tissue to tissue ratio at 2 h [6, 26] was 43.1 ± 4.1. For the same compound, the tissue to tissue ratio at 2 h [6, 27] was 0.3 ± 0.01, the tissue to tissue ratio at 2 h [6, 28] was 21.6 ± 1.6 and the tissue to tissue ratio at 2 h [6, 29] was 14.3 ± 2.5. For the same compound, the “internalization percentage (percentage of cell-associated ligand that was internalized)” value ([7]; 37 °C, 2 h) was 73–90% and the “PSMA-specific membrane binding and internalization” value [7] was “highest membrane-bound and internalized fraction”.

For `CC(=O)N[C@@H](CCCCNC(=O)CCCCCNC(=O)[C@H](CCC(=O)O)NC(=O)[C@H](CCC(=O)O)NC(=O)[C@H](Cc1ccccc1)NC(=O)[C@H](CCCCNC(=O)CCCCCNC(=O)OCCCOc1cccc2c3n4c(c12)=NC1=NC(=Nc2c5ccccc5c(n2[Si]4(O[Si](C)(C)CCC[N+](CCCS(=O)(=O)[O-])(CCCS(=O)(=O)O)CCCS(=O)(=O)O)O[Si](C)(C)CCC[N+](CCCS(=O)(=O)[O-])(CCCS(=O)(=O)O)CCCS(=O)(=O)O)N=C2N=C(N=3)c3ccccc32)c2ccccc21)NC(=O)CCC(C(=O)O)N1CCN(CC(=O)O)CCN(CC(=O)O)CCN(CC(=O)O)CC1)C(=O)O` (some centres unmarked) [PSMA-N064inc, reference compound], the “renal ligand accumulation on images” value [8] was “lowest”, the Tumor/Negative tumor ratio [5] was 1.1 ± 0.5 and the Tumor/Prostate ratio [5] was 1.3 ± 0.9. The Tumor/Salivary gland ratio [5] was 1.6 ± 0.5, the tissue uptake at 2 h [6, 9] was 0.4 ± 0.1 %ID/g and the tissue uptake at 2 h [6, 10] was 0.5 ± 0.2 %ID/g. It also gave a tissue uptake at 2 h [6, 11] of 0.7 ± 0.6 %ID/g, a tissue uptake at 2 h [6, 12] of 0.3 ± 0.2 %ID/g and a tissue uptake at 2 h [6, 13] of 0.1 ± 0.03 %ID/g. The tissue uptake at 2 h [6, 14] was 0.2 ± 0.1 %ID/g, the tissue uptake at 2 h [6, 15] was 0.2 ± 0.04 %ID/g and the tissue uptake at 2 h [6, 16] was 0.3 ± 0.1 %ID/g. It also gave a tissue uptake at 2 h [6, 17] of 47 ± 6 %ID/g, a tissue uptake at 2 h [6, 18] of 0.6 ± 0.1 %ID/g and a tissue uptake at 2 h [6, 19] of 0.3 ± 0.1 %ID/g. The tissue uptake at 2 h [6, 20] was 0.1 ± 0.1 %ID/g, the tissue uptake at 2 h [6, 21] was 0.1 ± 0.04 %ID/g and the tissue uptake at 2 h [6, 22] was 0.6 ± 0.7 %ID/g. For the same compound, the tissue uptake at 2 h [6, 23] was 0.3 ± 0.05 %ID/g, the tissue uptake at 2 h [6, 24] was 0.2 ± 0.04 %ID/g and the tissue uptake at 2 h [6, 25] was 0.4 ± 0.1 %ID/g. It also gave a tissue to tissue ratio at 2 h [6, 26] of 1.5 ± 0.6, a tissue to tissue ratio at 2 h [6, 27] of 0.01 ± 0.003 and a tissue to tissue ratio at 2 h [6, 28] of 0.7 ± 0.2. The tissue to tissue ratio at 2 h [6, 29] was 2.1 ± 0.5 and the “PSMA-specific membrane binding and internalization” value [7] was “no binding and internalization”.
